What was measured:
[1] = molecular target: T1, ScDmc1 wt (UniProt P25453 1-334); assay: cryo-EM; 2 mM ATP, 5 mM Ca2+; presynaptic complex; hRAD51: 25 mM HEPES pH 7.5, 25 mM KCl, 4 mM MgCl2, 4 mM AMP-PNP, 37 C; ScDmc1: 35 mM Tris-HCl pH 7.5, 96 mM KCl, 2 mM ATP, 5 mM CaCl2, 1 mM DTT, 37 C. Strand-exchange/smFRET activity assays and MM-GBSA energies not listed.; details: protein: recombinant; tags: His6
T1 sequence: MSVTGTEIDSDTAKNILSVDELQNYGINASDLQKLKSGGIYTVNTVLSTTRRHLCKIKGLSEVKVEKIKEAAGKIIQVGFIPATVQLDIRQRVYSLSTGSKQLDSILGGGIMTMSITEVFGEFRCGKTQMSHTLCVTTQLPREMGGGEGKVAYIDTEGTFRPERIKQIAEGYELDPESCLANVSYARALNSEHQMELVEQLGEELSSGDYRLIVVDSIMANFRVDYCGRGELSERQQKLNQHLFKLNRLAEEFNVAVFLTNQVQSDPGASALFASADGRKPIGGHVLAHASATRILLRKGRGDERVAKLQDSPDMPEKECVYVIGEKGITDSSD

[2] = molecular target: T2, hRAD51 wt (Homo sapiens (human), UniProt Q06609 1-339); assay: cryo-EM; 4 mM AMP-PNP, 4 mM Mg2+, RS-1; presynaptic complex; hRAD51: 25 mM HEPES pH 7.5, 25 mM KCl, 4 mM MgCl2, 4 mM AMP-PNP, 37 C; ScDmc1: 35 mM Tris-HCl pH 7.5, 96 mM KCl, 2 mM ATP, 5 mM CaCl2, 1 mM DTT, 37 C. Strand-exchange/smFRET activity assays and MM-GBSA energies not listed.; details: protein: recombinant; chain copies: 10
[3] = molecular target: T2, hRAD51 wt; assay: cryo-EM; AMP-PNP, Mg2+, Hop2-Mnd1 added to trigger exchange, no RS-1; postsynaptic complex; hRAD51: 25 mM HEPES pH 7.5, 25 mM KCl, 4 mM MgCl2, 4 mM AMP-PNP, 37 C; ScDmc1: 35 mM Tris-HCl pH 7.5, 96 mM KCl, 2 mM ATP, 5 mM CaCl2, 1 mM DTT, 37 C. Strand-exchange/smFRET activity assays and MM-GBSA energies not listed.; details: protein: recombinant; chain copies: 16; blunt
[4] = molecular target: hRAD51 273-PG-274 (Homo sapiens (human), UniProt Q06609 1-339, V273P;D274G); assay: cryo-EM; AMP-PNP, Mg2+, Hop2-Mnd1 added, no RS-1; postsynaptic complex; hRAD51: 25 mM HEPES pH 7.5, 25 mM KCl, 4 mM MgCl2, 4 mM AMP-PNP, 37 C; ScDmc1: 35 mM Tris-HCl pH 7.5, 96 mM KCl, 2 mM ATP, 5 mM CaCl2, 1 mM DTT, 37 C. Strand-exchange/smFRET activity assays and MM-GBSA energies not listed.; details: protein: recombinant; chain copies: 16; blunt
[5] = molecular target: T1, ScDmc1 wt; assay: cryo-EM; 2 mM ATP, 5 mM Ca2+, Hop2-Mnd1 added; postsynaptic complex; hRAD51: 25 mM HEPES pH 7.5, 25 mM KCl, 4 mM MgCl2, 4 mM AMP-PNP, 37 C; ScDmc1: 35 mM Tris-HCl pH 7.5, 96 mM KCl, 2 mM ATP, 5 mM CaCl2, 1 mM DTT, 37 C. Strand-exchange/smFRET activity assays and MM-GBSA energies not listed.; details: protein: recombinant; tags: His6; blunt
[6] = molecular target: the molecule itself; assay: cryo-EM structure; helical filaments of 4 uM ScDmc1 on 150-mer ssDNA (presynaptic) or after strand exchange with 150-bp dsDNA and 0.4 uM Hop2-Mnd1 (postsynaptic); 35 mM Tris-HCl pH 7.5, 96 mM KCl, 2 mM ATP, 5 mM CaCl2, 1 mM DTT, 37°C
[7] = molecular target: the molecule itself; assay: cryo-EM structure; helical filaments of 2 uM hRAD51 on 150-mer ssDNA with 2 uM RS-1 (presynaptic, wt only) or after strand exchange with dsDNA and 0.2 uM Hop2-Mnd1 without RS-1 (postsynaptic, wt and 273-PG-274); 25 mM HEPES pH 7.5, 25 mM KCl, 4 mM MgCl2, 4 mM AMP-PNP, 37°C

B1: 150-mer ssDNA oligo 4 (ssDNA)
DNA: TAAATAAGATAAGGATAATACAAAATAAGTAAATGAATAAACAGAGAAAATAAAGTAAAGGATATAAAAAATGAACATAAAGAATAAGTAAATGAATAAAACATAATAGGAATAAATATAGGAAATGAAATAAAAGAGACATAAATAAGA
- binding result [1]: binds
- binding result [2]: binds

B2: 150-bp homologous dsDNA oligo 4/oligo 5 (postsynaptic) (dsDNA)
DNA 1: B1 DNA
DNA 2: TCTTATTTATGTCTCTTTTATTTCATTTCCTATATTTATTCCTATTATGTTTTATTCATTTACTTATTCTTTATGTTCATTTTTTATATCCTTTACTTTATTTTCTCTGTTTATTCATTTACTTATTTTGTATTATCCTTATCTTATTTA
- binding result [3]: binds
- binding result [4]: binds
- binding result [5]: binds

B3: yeast Dmc1 wild type (natural protein)
chain: T1 sequence
notes: Dmc1 meiotic recombinase, yeast (ScDmc1); wt construct pNRB150, a gift from Dr Zhi Qi; Stood as a helical filament on ssDNA (presynaptic) or dsDNA (postsynaptic) with ATP-Ca2+; The stored protein is named His6-ScDmc1 and no cleavage of the tag is described; also called ScDmc1; ScDmc1 wt; source: E. coli BLR(DE3) plysS (RecA-deficient), purified (Talon beads, Heparin)
- binding result [6]: binds

B4: human RAD51 mutant 273-PG-274 (natural protein)
chain: MAMQMQLEANADTSVEEESFGPQPISRLEQCGINANDVKKLEEAGFHTVEAVAYAPKKELINIKGISEAKADKILAEAAKLVPMGFTTATEFHQRRSEIIQITTGSKELDKLLQGGIETGSITEMFGEFRTGKTQICHTLAVTCQLPIDRGGGEGKAMYIDTEGTFRPERLLAVAERYGLSGSDVLDNVAYARAFNTDHQTQLLYQASAMMVESRYALLIVDSATALYRTDYSGRGELSARQMHLARFLRMLLRLADEFGVAVVITNQVVAQPGGAAMFAADPKKPIGGNIIAHASTTRLYLRKGRGETRICKIYDSPCLPEAEAMFAINADGVGDAKD
notes: RAD51 recombinase, human, with V273 and D274 of Loop2 changed to P and G (the residues of hDMC1); made from the hRAD51 wt construct by point mutation; Stood as a helical filament on dsDNA (postsynaptic complex, without RS-1); Only an EM map is deposited (EMD-31155), no PDB model; also called PG mutant; source: E. coli BLR(DE3) plysS (RecA-deficient), purified as hRAD51 wt
- binding result [7]: binds

Reference: PMC8682777, “Mechanisms of distinctive mismatch tolerance between Rad51 and Dmc1 in homologous recombination” (Nucleic Acids Research, 2021)
